Test results as given in US10088487B2, “Method for the quantitative characterization of amyloid and/or aggregating peptides and/or proteins in a sample” (Forschungszentrum Juelich GmbH, priority 2013, dated 2018).
Non-standard residues stand in square brackets, D forms with d. No end group written: not given here.

Key:
[1] = tested on: transgenic AD mice; details: oral administration with drinking water; cited from earlier work
[2] = molecular target: T1, Aβ(1-42) oligomers (Homo sapiens, UniProt P05067); assay: Density gradient centrifugation combined with RP-HPLC: effect of active ingredient on size distribution of Aβ(1-42) aggregates; assay type: biochemical; details: for quantity of Aβ oligomers in fractions 4 to 6: co-incubation 40 min, vs control without active ingredient
T1 construct: 1 mg of lyophilized Aβ(1-42) (Bachem, Heidelberg); purchased Bachem, Heidelberg
Description: For the following examples of embodiments, only one ultracentrifuge and one HPLC system having a suitable separating column and a UV detector were required. In order to determine the reduction of the Aβ oligomer proportion in an aggregate mixture, pretreated and dried Aβ(1-42) peptide was dissolved in buffer and incubated until the greatest possible Aβ oligomer proportion was obtained. The active ingredient to be analyzed was then added to this oligomer-enriched sample.
1 mg of lyophilized Aβ(1-42) (Bachem, Heidelberg) was incubated, after being removed from the freezer, for 10 to 30 min at room temperature (RT) in order to equalize the temperature of the peptide pellet and of the surrounding environment and thus to avoid moisture condensing from the air. Thereafter, the Aβ peptide was dissolved in HFIP (1,1,1,3,3,3-hexafluoro-2-propanol) (Sigma-Aldrich, Taufkirchen) in a concentration of 1 mg/700 μl and incubated overnight at RT with shaking until full dissolution was achieved, in order to ensure that the Aβ(1-42) exists entirely as monomers at this point in time. The Aβ(1-42) was then aliquoted in an amount of 36 μg per Eppendorf vessel. To remove the HFIP, the aliquots were left to stand open under the extractor for approximately 30 min. The rotational vacuum concentrator (rotational vacuum concentrator RVC 2-18, Christ, Mainz-Mombach) was pre-cooled for approximately 30 min. The Aβ(1-42) aliquots were then dried for a further 30 min in the rotational vacuum concentrator so that the last HFIP residues could also evaporate off. The aliquoted, dried Aβ(1-42) was stored at −20° C. until use.
Prior to the experiment, one Aβ(1-42) aliquot was dissolved to 80 μM in 100 μl of 10 mM NaH2PO4/Na2HPO4 buffer (Sigma-Aldrich, Taufkirchen), pH 7.4 and incubated at RT for 6 h with shaking. The incubation time of 6 h was optimized for this specific Aβ from this specific company in order to ensure that the largest possible proportion of the Aβ exists as oligomers, so as to be able to measure the reduction thereof as unambiguously as possible. For other Aβ peptides from other manufacturers, the incubation time may vary and should/can be adapted accordingly.
Thereafter, the active ingredient candidate to be analyzed was added in a quantity of 10 or 20 μM. The co-incubation of the Aβ/active ingredient solution took place for 40 min at RT with continuous shaking. When no active ingredient was added (control), the Aβ solution was treated in the same way.
The samples were then layered onto a pre-formed density gradient (see Table 1). The gradient material used consisted of a 60% strength (w/v) iodixanol solution named Optiprep™ (Axis-Shield, Oslo, Norway). It is a dimeric compound of iohexol having the systematic name 5,5-[(2-hydroxy-1,3-propanediyl)-bis(acetylimino)]bis-[N,N′-bis(2,3-hydroxypropyl)-2,4,6-triiodobenzenedicarboxamide]. […]
The non-linear density gradient was centrifuged at 4° C. and 259,000×g in a TLS-55 swing-out rotor (Beckman-Coulter, Palo Alto, USA) for 3 h in a TL 100 ultracentrifuge (Beckman-Coulter, Palo Alto, USA). The density gradient is measured by refractometric determination of the iodixanol concentration in the individual fractions. An estimate of the size of sedimented protein particles based on the position in the gradient at the end of the centrifugation takes place on the basis of a calibration using marker proteins of known size and shape, which were analyzed under identical centrifugation conditions on the gradient. […]

[3] = tested on: Aβ oligomers; details: according to what is presently known; cited from earlier work
Aβ oligomers, sequence (P05067 672-711 limits assumed): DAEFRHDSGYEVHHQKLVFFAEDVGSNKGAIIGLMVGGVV

T1 sequence (P05067 672-713): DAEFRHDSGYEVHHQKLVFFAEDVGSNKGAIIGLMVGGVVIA

| Substance | cognitive capabilities of treated transgenic AD mice [1] | plaques in treated transgenic AD mice [1] | quantity of Aβ oligomers in fractions 4 to 6 ([2]; 20 μM D3, 80 μM Aβ(1-42) pre-incubated 6 h) | proportion of large aggregates in fractions 11 to 14 ([2]; 20 μM D3, vs control without active ingredient) | effect on toxic Aβ oligomers (conversion into non-toxic, non-amyloidogenic, ThT-negative amorphous aggregates) [3] | quantity of Aβ oligomers in fractions 4 to 6 ([2]; 10 μM D3D3, 80 μM Aβ(1-42) pre-incubated 6 h) | proportion of large aggregates in fractions 11 to 14 ([2]; 10 μM D3D3, vs control without active ingredient) | effect in eliminating oligomeric Aβ species compared with D3 ([2]; 10 μM D3D3 versus 20 μM D3) |
| --- | --- | --- | --- | --- | --- | --- | --- | --- |
| D3: D-enantiomeric peptide identified by mirror image phage display selection against predominantly monomeric Aβ(1-42); SEQ ID NO: 1 ([dR][dP][dR][dT][dR][dL][dH][dT][dH][dR][dN][dR]) | significantly improved cognitive capabilities | considerably fewer plaques | reduction in the quantity of oligomers | much greater | destroys the particularly toxic Aβ oligomers | – | – | – |
| D3D3: tandem dimer of the D-peptide D3; SEQ ID NO: 2 ([dR][dP][dR][dT][dR][dL][dH][dT][dH][dR][dN][dR][dR][dP][dR][dT][dR][dL][dH][dT][dH][dR][dN][dR]) | – | – | – | – | – | reduction in the quantity of oligomers | much greater | much more pronounced effect |
